Measurements from patent publication US20170183645A1.
Values joined by “and” are separate entries in the source; they are usually repeats but may differ in a detail not shown here. Equal values may be shown once.

Columns and labels:
[1] = molecular target: H3N2 influenza neuraminidase (influenza H3N2 (strain not stated))
[2] = molecular target: influenza H5N1 neuraminidase (H5N1 A/Thailand/1(KAN-1)/2004) (influenza A virus H5N1 A/Thailand/1(KAN-1)/2004)
[3] = molecular target: H1N1 influenza neuraminidase (influenza H1N1 (strain not stated))

Binder | ELISA reactivity compared to control protein (BSA) [1] | ELISA reactivity compared to control protein (BSA) [2] | ELISA reactivity compared to control protein (BSA) [3]
humanized VHH h27-8GL (monovalent) (VHH) VHH: QVQLVESGGGLVQPGGSLRLSCAASGGTFSSYVMGWFRQAPGKGLESVASITRDGDTTFYADSVKGRFTISRDNSKNTLYLQMNSLRAEDTAVYYCAAAVQYGTLWSRQYDYWGQGTLVTVSS | 1.34 and 1.09 | 2.27 and 1.78 | 1.62 and 1.21
Bivalent homodimer of humanized anti-Flu neuraminidase VHH (clone Flu h27-8GL.h27-8GL) (VHH) QVQLVESGGGLVQPGGSLRLSCAASGGTFSSYVMGWFRQAPGKGLESVASITRDGDTTFYADSVKGRFTISRDNSKNTLYLQMNSLRAEDTAVYYCAAAVQYGTLWSRQYDYWGQGTLVTVSSAHHSEDPSSKAPKAPMAQVQLVESGGGLVQPGGSLRLSCAASGGTFSSYVMGWFRQAPGKGLESVASITRDGDTTFYADSVKGRFTISRDNSKNTLYLQMNSLRAEDTAVYYCAAAVQYGTLWSRQYDYWGQGTLVTVSS | 1.67 and 1.13 | 3.73 and 2.15 | 2.44 and 1.31
Anti-Flu neuraminidase VHH (clone Flu 27-8) (VHH) VHH: QVQLVESGGRLVQAGGSLRVACVASGGTFSSYVMGWFRQAPGKERESVASITRDGDTTFYADSVKGRFTIARDNAKNTVYLQMNSLQPEDTGVYYCAAAVQYGTLWSRQYDYWGQGTQVTVSS | 1.08 | 2.48 | 1.89
